Reference: US7538262B2, “GDC-2 genes conferring herbicide resistance” (Athenix Corporation, priority 2003, dated 2009)

Assays:
[1] = Assay of GDC-2 acetolactate synthase activity (acetoin colorimetric detection); assay type: biochemical; details: 50 mM pyruvate, 1 mM TPP, 10 mM MgCl2, 0.01 mM FAD, pH 7.0, 2 hours at 37° C.
Procedure: Acetolactate synthases are decarboxylating enzymes that condense two pyruvate molecules to form acetolactate with the release of a CO2 moiety from one of the pyruvate substrates. In the detection of the enzymatic reaction described by Pang and Duggleby (Pang and Duggleby (1999) Biochemistry 18:5222-5231), the product acetolactate is converted to acetoin by incubation with 1% H2SO4 for 15 minutes at 60° C. followed by neutralization with KOH. The acetoin is then detected as described by Westerfeld (Westerfeld (1945) J. Biol. Chem.161:495-502), using 0.15% creatine and 1.5% alpha-naphthol (dissolved in 2.5 N NaOH). The red colored reaction product is quantified by absorbance at 525 nm.
Samples containing either 5 μg or 10 μg of GDC-2 were incubated in 50 mM pyruvate, 1 mM […] pyrophosphate, 10 mM MgCl2, 0.01 mM Flavin adenine dinucleotide (FAD), 100 mM potassium phosphate buffer pH 7.0 (total reaction volume of 50 μl) for 2 hours at 37° C. The reaction was stopped by the addition of 1 μl of 50% sulfuric acid (H2SO4) and incubated at 60° C. for 15 minutes. The reaction was neutralized by the addition of 30 μl of 1 N KOH followed by the addition of 10 μl of 1.5% creatine and 10 μl of 15% alpha-napthol dissolved in 2.5 N NaOH. The red colored reaction product was quantified by absorbance at 525 nm.

[2] = test system: ΔaroA E. coli; test: Genetic complementation of aroA mutation in E. coli; assay type: cell-based; details: ΔaroA E. coli transformed with pAX473; M63 alone
From the text: The E. coli aroA gene codes for EPSP synthase, the target enzyme for glyphosate. […] However, genes encoding EPSPS activity can restore the ability to grow […] upon aroA mutant E. coli strains. Thus, a test for genetic complementation of an aroA mutant is a highly sensitive method to test if a gene is capable of functioning as an EPSPS in E. coli. Such tests for gene function by genetic complementation are known in the art.
A deletion of the aroA gene was created in E. coli XL-1 MRF′ (Stratagene) by PCR/recombination methods known in the art and outlined by Datsenko and Wanner, (2000) Proc. Natl. Acad. Sci. USA 97:6640-6645. This system is based on the Red system that allows for chromosomal disruptions of targeted sequences. A large portion (1067 nt of the 1283 nt) of the aroA coding region was disrupted by the engineered deletion.
The ability of an EPSPS to complement the mutant phenotype of ΔaroA was confirmed. Clone pAX482, an E. coli expression vector containing the wild-type E. coli aroA gene, was transformed into ΔaroA, and transformed cells were selected. These cells (containing a functional aroA gene residing on a plasmid) were then plated on LB media, M63, and M63 with amino acid supplements. […]

B1: GDC-2: glyphosate resistance-conferring decarboxylase protein (SEQ ID NO:3), acetolactate synthase homologue from strain ATX6837; purified as 6× His-tagged protein (protein)
chain: MLRSRQASKALRALGQARHFTSTTQPAAVQAPRKVASGQRNQATAATATSAAPNVRATPSPAFNAEEQQQQKHSHVQPLVNPQKSDMDESFIGKTGGEIFHEMMLRQGVKHIFGYPGGAILPVFDAIYNSKHFDFILPRHEQGAGHMAEGYARASGKPGVVLVTSGPGATNVVTPMQDALSDGTPLVVFCGQVPTSAIGSDAFQEADVVGISRACTKWNVMVKNVAELPRRINEAFEIATSGRPGPVLVDLPKDVTAGILRRAIPTETALPALPSAASRAAMESSRKHLEHTIKRVADLVNKAKQPVIYAGQGIIQSEGGPELLKELADKASIPVTTTLQGLGGFDELDEKSLHMLGMHGSAYANMAMQEADLIIALGARFDDRVTLNVAKFAPGARAAAAEKRGGIVHFEVMPKNINKVVQATEAVEGNVGSNLKLLLPEVQAKTMDDRKEWFGKINEWKKKWPLSHYERAERHGLIKPQTLIEELSKLTADRKDKTYIATGVGQHQMWTAQHFRWRHPRSMITSGGLGTMGFGLPAAIGAKVAQPDALVFDIDGDASFGMTLTELATAAQFNIGVKVIVLNNEEQGMVTQWQNLFYEDRYAHTHQVNPDFMKLAESMRVQGRRCVDPEDVVDSLKWLINTDGPALLEVVTDKKVPVLPMVPAGSALHEFLVFDGEKDKKRRELMRERTSGLHG
modifications: 6xHis tag; Fungal isolate from soil sample
notes: purified as 6× His-tagged protein
- Absorbance 525 nm (acetolactate synthase activity) ([1]; 5 μg GDC-2): 1.99
- Absorbance 525 nm (acetolactate synthase activity) ([1]; 10 μg GDC-2): 3.13
- Complementation of the aroA mutation (growth on M63 minimal media lacking aromatic amino acids) [2]: not capable of complementing the aroA mutation
